Where a chain is given by its changes, count along the chain named.
T1: recombinant human RANTES (huRANTES, Peprotech) (human, UniProt P13501 24-91)
T1 sequence: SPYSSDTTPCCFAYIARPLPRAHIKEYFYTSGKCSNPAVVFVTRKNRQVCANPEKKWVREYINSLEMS

B1: CG11 scFv (scFv)
chain: QVQLVQSGTEVKKPGATVNVSCKISGHLFTDYYIHWVQQAPGKGLEWVGLIDPKDGEIQYAEKFQARVTITADTSTDTVYMELNSLRSEDTAVYYCATEVLSGIRVFPFDPWGQGTLVTVSSQSVLTQPPSVSGAPGQRVTISCTGSSSNIGAGYDVYWYQQFPGKAPKLLIYDTNNRPPGVPDRFSGSKSGTSASLAISGLQTEDEADYYCQSYDIALSNSNVVFGGGTKLTVL
B2: H11 scFv (scFv)
chain: QVQLVQSGAEVKKPGSSVKVSCKASGGISDNYALSWVRQAPGQGLEWMGGFIPLVDTTNYAQRFQGRLTITADDSMSTVYMELRSLRSDDTAMYYCAREQVAVGPGPTSDRGPDGLDVWGQGTMVTVSSQSVLTQPSSVSGAPGHRVTISCTGSNSNLGADYDVHWYQQLPGSAPKLLIYDNNIRPSGVPARFSGSKSGTSASLAITGLQAEDEADYYCQSYDTGLTSSDVIFGGGTKLTVL
B3: D1 scFv (scFv)
chain: EVQLVQSGPEVKKPGATVKISCNVSAETFTDYYIHWVKQAPGRGLEWMGLVDSEEDGETLFAETFRGRVALTADRSTNTAYMELRSLRHDDTAVYYCAAEYGEYGFFQSWGQGTLVTVSSQSVLTQPPSVSGAPGQRVTISCTGSSSNIGADYDVNWYQQLPGTSPKLLIYGDINRPSGVPDRFSASKSGTSASLAITGLQAEDEADYYCQSFDNSLSGSVIFGGGTKLTVL
B4: E7 scFv (scFv)
chain: QVQLVQSGAEVKKPGSSVKVSCKISGGISDNYALSWVRQAPGQGLEWMGAVIPLVETTSYAQRFQGRLTITADDSLNTLYMELGSLRSDDTAMYYCAREQVAVGPGPTSNRGPDGLDVWGRGTMVTVSSQSVLTQPPSVSGAPGQRVTISCTGSSSNIGDGYDVHWYQQLPGTAPKLLIYGNSNRPSGVPDRFSGSTSGTSASLAIRGLQSEDEADYYCGTWDDILNGWVFGGGTKLTVL
B5: C8 scFv (scFv)
chain: QVQLVESGGGVVQPGRSLRLSCAASGFTFSSYAMHWVRQAPGKGLEWVAVISYDGSNKYYADSVKGRFTISRDNSKNTLYLQMNSLRAEDTAVYYCARETFPHYYYYYMDVWGRGTLVTVSSSYVLTQPPSVSVAPGQTARITCEGDDTDIGTVNWYQQKPGQAPVLVISEDGYRPSGIPERFSGSNSGNTATLTISRVEAGDEADYYCQFWDVDSDHPVFGGGTQLTVL
B6: 1D9 scFv (scFv)
chain: QVQLVQSGAEVKKPGASVKVSCKVSGYTLTEFAMHWVRQAPGKGLEWMGGFVPEDGETIYAQKFQGRVTMTEDTSTDTAYMELSSLRSEDTAVYYCATDPLYTPGLEPWGQGTTVTVSSSYVLTQPPSVSVAPGQTARITCGGNNIESKSVHWYQQKPGQAPVLVVYDDSDRPSGIPERFSGSNSGNTATLTISRVEAGDEADYYCQVWDSNTDHWVFGGGTKLTVL
B7: 1E4 scFv (scFv)
chain: B6 chain with T103E, P104G, G105S, L106F, E107S, P108V
B8: 3E7 scFv (scFv)
chain: B6 chain with T30N, E31D, F51Y, E57D, T103P, E107S, L224V
B9: 4D8 scFv (scFv)
chain: B6 chain with T30N, E31D, F51Y, E57D, E107Y, P108V, L224V
B10: 5E1 scFv (scFv)
chain: B6 chain with T30N, E31D, F51Y, E57D, P100Y, T103I, G105S, E107S, P108Y, L224V
B11: 6A8 scFv (scFv)
chain: B6 chain with T30N, E31D, F51Y, E57D, T103P, E107Q, L224V
B12: 7B5 scFv (scFv)
chain: QVQLVQSGAEVKKPGASVKVSCKVSGYTLNDFAMHWVRQAPGKGLEWMGGYVPEDGDTIYAQKFQGRVTMTEDTSTDTAYMELSSLRSEDTAVYYCATDPLYSGSLSYWGQGTTVTVSSSYVLTQPPSVSVAPGQTARITCGGNNIESKSVHWYQQKPGQAPVLVVYDDSDRPSGIPERFSGSNSGNTATLTISRVEAGDEADYYCQVWDSGPVWWIFGGGTKLTVL
B13: BG11 antibody, IgG1 format (antibody, V domains shown)
VH: QVQLVQSGAEVKKPGASVKVSCKVSGYTLTELSMHWVRQAPGKGLEWMGGFDPEDGETIYAQKFQGRVTMTEDTSTDTAYMELSSLRSEDTAVYYCATYSGSSGWWAFDIWGQGTMVTVSS
VL: SSELTQDPAVSVALGQTVRITCQGDSLRSYYASWYQQKPGQAPVLVIYGKNNRPSGIPDRFSGSSSGNTASLTITGAQAEDEADYYCQTWGTGIWVFGGGTKLTVL
B14: E6 antibody, IgG1 format (antibody, V domains shown)
VH: QVQLVQSGAEVEKPGASVKVSCRVSGYPLTEIAIHWVRQAPGKGLEWMGSFEPEDAEAIYAQRFQGRVTMTEETSANTAYMELSSLRSEDTAVYFCATDPYYASSGSNYMEVWGRGTLVTVSS
VL: NFMLTQPHSVSESPGKTVTISCTGSGGSISSNYVQWYRQRPGSAPSTVIYEDDQRPSGVPDRISGSIDSSSNSASLTISGLTTEDEADYYCHSYDGNNRWVFGGGTKLTVL
B15: G2 antibody, IgG1 format (antibody, V domains shown)
VH: QVQLVQSGAEVKKPGASVKVSCRASGYALTELSIHWVRQAPGKGLEWMGGFDPEDGETIYAQNFQGRVIMTEDTSTDTAYMELSSLKSEDTAVYYCATDLTGSRDSWGQGTLVTVSS
VL: QSVLTQPASVSGSPGQSITISCTGSRSDIGYYNYVSWYQQHPGKVPKLIIYDVTERPSGVSDRFSGSKSANTASLTISGLQAEDEADYYCSSFSSGDTFVVFGGGTKLTVL
B16: E10 antibody, IgG1 format (antibody, V domains shown)
VH: QVQLVESGGGVVQPGRSLRLSCAASGFTFSSYAMHWVRQAPGKGLEWVAVISYDGSNKYYADSVKGRFSISRDNSKNTLYLQMNSLRAEDTAVYYCARETFPHYYYYYMDVWGKGTMVTVSS
VL: SYVLTQPPSVSVAPGQTARISCGGGNFDDEGVHWYQQTPGQAPVLVVYDDTGRPSGIPERFSGSSSGNTATLTISRVEAGDEADYYCQAWDSSNDHPVFGGGTQLTVL
B17: C10 antibody, IgG1 format (antibody, V domains shown)
VH: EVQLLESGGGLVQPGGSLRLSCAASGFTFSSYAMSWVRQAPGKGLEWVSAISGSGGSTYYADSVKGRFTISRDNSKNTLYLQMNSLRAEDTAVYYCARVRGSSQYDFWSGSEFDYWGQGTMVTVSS
VL: SYVLTQPPSVSVAPGKTASISCGGDNIGGQNVHWYQQKPGQAPVLVIYYDTDRPSGIPERFSGSNSGNTATLSISRVEAADEADYYCQVWDVDSDHPWVFGGGTKLTVL
B18: 2D1 antibody, IgG1 format (antibody, V domains shown)
VH: QVQLVQSGAEVKKPGASVKVSCKVSGYTLNDFAMHWVRQAPGKGLEWMGGYVPEDGDTIYAQKFQGRVTMTEDTSTDTAYMELSSLRSEDTAVYYCATDPLYSGSLSYWGQGTTVTVSS
VL: SYVLTQPPSVSVAPGQTARITCGGNNIESKSVHWYQQKPGQAPVLVVYDDSDRPSGIPERFSGSNSGNTATLTISRVEAGDEADYYCQVWDSNTDHWVFGGGTKVTVL
B19: A5 antibody, IgG1 format (antibody, V domains shown)
VH: QVQLVQSGAEVKKPGASVKVSCKVSGYALSELSIHWVRQAPGKGLEWMSYIDPEDGEPIYAQKFQGRATMTEDSSTDTAYMEMGSLTSDDTAVYYCAGVTGSTSDAFDLWGRGTLVTVSS
VL: SYVLTQDPSVSVAPGQTARITCGGANLWGLGVHWYQQKSGQAPVLVVSDNSDRASGIPERFSGSNSGTTATLTLSRVEVGDEADYYCQVWDSSSDHWVFGGRTKLTVL
B20: E6 scFv (scFv)
chain: QVQLVQSGAEVEKPGASVKVSCRVSGYPLTEIAIHWVRQAPGKGLEWMGSFEPEDAEAIYAQRFQGRVTMTEETSANTAYMELSSLRSEDTAVYFCATDPYYASSGSNYMEVWGRGTLVTVSSNFMLTQPHSVSESPGKTVTISCTGSGGSISSNYVQWYRQRPGSAPSTVIYEDDQRPSGVPDRISGSIDSSSNSASLTISGLTTEDEADYYCHSYDGNNRWVFGGGTKLTVL
B21: 3E7 antibody, IgG1 format (antibody, V domains shown)
VH: B18 VH with S103P, G104P, S105G, Y108P
VL: B18 VL
B22: 4D8 antibody, IgG1 format (antibody, V domains shown)
VH: B18 VH with S103T, G104P, S105G, S107Y, Y108V
VL: B18 VL
B23: 5E1 antibody, IgG1 format (antibody, V domains shown)
VH: B18 VH with P100Y, S103I, G104P
VL: B18 VL
B24: 6A8 antibody, IgG1 format (antibody, V domains shown)
VH: B18 VH with S103P, G104P, S105G, S107Q, Y108P
VL: B18 VL
B25: 7B5 antibody, IgG1 format (antibody, V domains shown)
VH: B18 VH
VL: B18 VL with N93G, T94P, D95V, H96W, V98I, V105L

Assays:
[1] = biological target: T1, recombinant human RANTES (huRANTES, …); assay: cell-based or functional assay
[2] = biological target: T1, recombinant human RANTES (huRANTES, …); assay: cell-based or functional assay; remark: listed apart in the source

Row | Chemotaxis IC50 (nM); L1.2 cells expressing hCCR5, 1 nM huRANTES; scFv format [1] | Chemotaxis IC50 (nM), 1 nM huRANTES; L1.2-hCCR5 cells; IgG1 format [2] | also measured | Binder
1 | 3.6 nM |  |  | B1
2 | 4.3 nM |  |  | B2
3 | 22 nM |  |  | B3
4 | 3.8 nM |  |  | B4
5 | 90 nM |  |  | B5
6 | 0.82 nM |  |  | B6
7 | 1.25 nM |  |  | B7
8 | 0.47 nM |  |  | B8
9 | 0.08 nM |  |  | B9
10 | 0.2 nM |  |  | B10
11 | 0.94 nM |  |  | B11
12 | 1.6 nM |  |  | B12
13 |  | 29 nM | Calcium Flux IC50 (nM), 10 nM rhuRANTES; L1.2-hCCR5 cells; IgG1 format [2]: 7.7 nM | B13
14 |  | 14 nM | Calcium Flux IC50 (nM), 10 nM rhuRANTES; L1.2-hCCR5 cells; IgG1 format [2]: 12.7 nM | B14
15 |  | 18.4 nM |  | B15
16 |  | 16 nM |  | B16
17 |  | 17 nM |  | B17
18 |  | 1.7 nM | Chemotaxis IC50 (nM), 0.2 nM huRANTES; L1.2-hCCR5 cells; IgG1 format [2]: 1.3 nM | B18
19 |  | 13.2 nM |  | B19
20 | 72 nM |  |  | B20
21 |  | 0.68 nM | Chemotaxis IC50 (nM), 0.2 nM huRANTES; L1.2-hCCR5 cells; IgG1 format [2]: 0.25 nM | B21
22 |  | 1.16 nM | Chemotaxis IC50 (nM), 0.2 nM huRANTES; L1.2-hCCR5 cells; IgG1 format [2]: 0.22 nM | B22
23 |  | 0.82 nM | Chemotaxis IC50 (nM), 0.2 nM huRANTES; L1.2-hCCR5 cells; IgG1 format [2]: 0.25 nM | B23
24 |  | 0.74 nM | Chemotaxis IC50 (nM), 0.2 nM huRANTES; L1.2-hCCR5 cells; IgG1 format [2]: 0.31 nM | B24
25 |  | 1.1 nM | Chemotaxis IC50 (nM), 0.2 nM huRANTES; L1.2-hCCR5 cells; IgG1 format [2]: 0.31 nM | B25
